Measurements taken from the nanobody polyreactivity screen of Harvey et al. (2022).

Assay: yeast display, Sf9 membrane polyspecificity reagent, FACS + sequencing; frameworks hold sequencing errors
Procedure, shortened: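 Nanobodies from a synthetic yeast display library (Saccharomyces cerevisiae BJ5465), induced 36–48 hours with galactose, were stained 1 hour at 4 °C with 10% biotinylated, detergent-solubilized Sf9 membrane reagent, enriched on streptavidin microbeads, then FACS-sorted. Anti-HA (expression) and streptavidin (reagent binding) fluorescence set low and high (top ~1%) gates. Polyreactivity labels come from the gate of origin. Genes were colony-PCR amplified, MiSeq 2 × 250 sequenced and filtered by CDR length.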

Sequence | polyreactivity (PSR sort gate)
QVQLVESGGGLVQAGGSLRLSCAASGRIIYSNAMGWYRQAHGKERELVASISPNTGTTYYADSVKGRFTISLDNAKNTVYLQMNSLKPEDTAVYYCAARGGYYQDGLVTGEAEYGYWGQGTQVTVSS | low polyreactivity
QVQLVESGGGLVQAGGSLRLTCAASGFTYTINGMGWYRQAPGKERELVAAINWRGGSTYYADSVKGRFTISRDNAKNTVYLQMNSLKPEDTAVYYCYAVAYIYSYAYPPYWGREHLNYWGQGTQVTVSS | low polyreactivity
QVQLVESGGGLVQAGGSLRLSCAASGRIFSGYAMGSYRQAPGKERELVAAITSVGSTNYADSVKGLFTISRDNAKNTVYLQMNSLKPEDTAVFNCAAKRYRPKYEYYYWGLGTQVTVSS | high polyreactivity
QVQLVESGGGLVQAGGSLRLSCAASGITFPGYAMGWYRQATGKERELVAVIRKSGTSTYYADSVKGRFTISRDTAKNTVYLQMNSLKPEDTAVYYCAAGGPSTLDDYWGQGTQVTVSS | low polyreactivity
QVQLVESGGGLVQAGGSLRLSCAASGSIFKTNAMGWYRQAPGKERELVAGISNGGSTNYADSVKGRFTISRDNAKNTVYLQMNSLKPEDTAVYYCATDFAVTKMEYWGQGTQVTVSS | low polyreactivity
QVQLVESGGGLVQAGGSLRLSCAASGSTFVYYAMGWYRQAPGKERELVAAINYSSGSTYYADSVKGRFTISRDNAKNTVYLQMNSLKPEDTAVYYCATDLLYYQYYSDYDYWGQGTQVTVSS | high polyreactivity
QVQLVESGGGLVQAGGSLRLSCAASGSIFKYYAKGWYRQAPGKERELVAAITIGGNTNYADSVKGRFTISRDNAKNTVYLQMNSLKPEDTAVYYCATGGYYSAIVYGGYDYWGQGTQVTVSS | low polyreactivity
QVQLVESGGGLVQAGGSLRLSSAASGFTFVGYAMGWSRQAPGKERELVAAITGRGGTTYYADSVKGRFTISRDNAKNTVYLQMNSLKPEDTSVYYCAADTPSFWTEVDSWGQGTQVTLSS | low polyreactivity
QVQLVESGGGVVQAGGSLRLSCAATGRIFGVYAMGWYRQAPGKERELVAAISSTGGSTYYADSVKGRFTISRDNAKNTVYLQMNSLKPEDTAVYYCEYDYWGQGSQVTVSS | low polyreactivity
QVQLVESGGGLVQAGGSLRLSCAASGRTFWYYAMGWYRQAPGKERELVAAITWSGSDTYYADSVKGRFTISRDNAKNTVYLLMNSLKPEDTAVYYCAAEYSYESSGYDYWGQGTQVTVSS | high polyreactivity
QVQLVESGGGLVQAGGILRLSCAASGSTFYGYAMGWYRQAPGKERELVAAITRSGGSTYYADSVKGRFTISRDNAKNTVYLQMNSLKPEDTEVYYCNKYGYKGGVGYDYWGQGTQVTVSS | high polyreactivity
QVQLVESGGGLVQAGGSLRLSCAASGRIFVYYAMGWYRQAPGKERELVAAITASGASTYYADSVKGRFTISRDNAKNTVYLQMNSLKPEDTAVYYCNVLYPRKYWQVREYYWGQGTQVTVSS | high polyreactivity
QVQLVESGGGLVQAGGSLRLSCAASGRIFSAYAMGWYRQAPGKEREFVAAITQSGGSTYYADSVKGRFTISRDNAKNTVYVQMNSLKPEDTAVYYCAAGDAYYTEALPFGEYDYWGQGTQVTVSS | low polyreactivity
QVQLVESGGGLVQAGGSLRLSCAASGRNLHYYSMGWYRQAPGKEWELVAAITWSGGSTYYADSVNGRFTISRDNAKNTVYLQMNSLKPVDTSVYYCAARGTDWGQGTQVTVSS | low polyreactivity
HVQLVESGGGLVQAGGSLRLSCAACGSTFRRYTMGWYIQAPGKDRELVAAITWSGGSTYYADSVKGRFTISRDNAKNTVYLQMNSLKPEDTAVYYCAADRPYHTREYYYWGQGSQVTVSS | low polyreactivity
QVQLVESGGGLVQAGGSLRLSCSASGIIFGWYAMGWYRKAPGKEREFVATISWSGASTYYADSVKGRFTISRDNAKNTVYLQLNSLKPEDTAVYYCAAVGRRQAFGRRDYWGQGKQVTVSS | high polyreactivity

Sequence | polyreactivity (PSR sort gate)
QVQLVESGGGLVQAGGSLRLSCAASGLTFYYYAMGWYRQAPGKERELVAAISYSGSRTYYADSVKGRFTISRDNAKNTVYLQMNSLKPEDTAVYYCAARLSDGGGYWGQGTQVTVSS | high polyreactivity
QVQLVESGGGLVQAGGSLRVSCAASGSIFIRYAMGWYRQAPGKERELVAAIRSSGGSTYADSVKGRFTISRDNAKNTVYLQMISLKPEDTAVYYCAAGRSSKNSYSYPYYYWGQGTQVTVSS | high polyreactivity
QVQLVESGGGLVQAGGRLRISCAASGSIFYLYARGWYRQAPGKERELVPVITGSGGSTYYADSVKGRFTISRDNSKYTVYLQMNSLKPVDTAVYYGAADYYWGYDWGQGTQVTVSS | low polyreactivity
QVQLVESGGGLVQAGGSLRLSCAASGSIFTRYAMGWYRQAPGKDRELDADIRWGGGDTYYADSVKGRFTNSRDNAKNTVYLQMNSLTPEDTAVYYCNADHTFIKYYPDWGDYGRDYDYWGQGTQVTVSS | low polyreactivity
QVQLVESGGGLVQAGGSLRLSCAASGRTFGPYAMGWYRQAPGKEREFVAAISYSGGSTYYADSVKGRFTISRDNAKNTVFLQMNSLKPEDTAVYYCAVDIDSNSGTRDYWGQGTQVTVSS | low polyreactivity
QVQLVESGGGLVQAGGSLRLSCAASGRIFYAYAMGWYRQAPGKERELVATITGIGGSTYADSVKGRFTISRDNAKNTVNLQMNSLKPEDTAVYYCNAERGVYWGRYPYKYDYWGQGTQVTVSS | low polyreactivity
QVQLVESRGGIVQAGGSLRLTCAASGRTFRSKVMGWYRQAQGKERELVADITYSGGNTYYADSVKGRFTISRDNAKNTDYLQMNSLKPEDNAVYYCATGWSWWTFDYWGQGTQVTVSS | high polyreactivity
QVQLVESGGGLVQAGGSLRLSCAASGSTFNSYVMGWYRQAPGKERELVAAITSSGSTYYADSVKGRFTISRDNAKNTVYLQMNSLKPEDTAVYYCNAQDAWEWQGVWVGARDDYDYWGQGTQVTVSS | low polyreactivity
QVQLVESGGGLVQAGGSLRLSCAASGFIFRKYAMGWYRQAPGKERELVAAITASGGSTYYADSVKGRFTISRDNAKNTVYLQMNSLKPEDTAVYYCATDYHGAERWLKYDYWGQGTQVTVSS | high polyreactivity
QVQLVESGGGLVQAGGSLRLSCAASGSILGYYAMRWYRQAPGKDRELVAAISSGGSTNYADSVKGRFTISRDNAKNTVYLQMNSLKPEDTAVYYCAADRTYHGGFDYWGLGTQVTVSS | low polyreactivity
QVQLVESGGCLVQAGGSLRLSCAASGSTFIDYAMGWYRQAPGKERELVAAITNGGNTKYADSVKGRFTISRDNAKNTVYLQMNSLKPEDTAVYYCAREPSIFTPSYDYWGQGTQVTVSS | low polyreactivity
QLHLVESGGGLVQAGGSLRLSCAASGRSFGLNALGRSRQAHGKERELVAVISFGDGGTYYADSVKGRFTISLDNAKNTVYLQMNSLKPEDTAVYYCATDYQSTSVWGGHFVINPYDYWGQGTKVTVSS | low polyreactivity
QVQLVESGGGLVQAGGSLRLSCAASGITFPLYVMGWSRQAPGKERELVAAISASGGSTYADSVKGRFTISRDNAKNTVYLQMNSLKPEDTAVYYCNADVYVGYDYDYWGQGTLVTVSS | low polyreactivity
QVQHVESGGGLVQAGGSLRLSCSASGITLPGSAIGWYRQAAGKVREFVAAISTSGGSTYYADSVKGRFTISRDYAKNTVYLQMNSLKPEDTAVYYCNARLVYYSYEEMDYWGQGTQVTVSS | low polyreactivity
QVQLVESGGGLVQAGVSLRLICAASGRTFGRSVMGWYRQAPGKERELVAAITSSSSSTYADSVKGRFTISRDNAKNTVYVQMNSLKPEDTEVYYCNKRYPSRHLPEYDYWGQGTQVSVSS | high polyreactivity
QVQLVESGGGLVQAGGSLRLSCAASGSIFTYKAMGWYRQAPGKERELVAAIRQRGGSTYYADSVKGRFTISRDNAKNTVYLQKNSLKPEDTAVYYCAARGSYVRSYYYYWGQGTQVTVSS | high polyreactivity
